Kd data for 4 substances are collected here from publication PMC10457309.

The target of this assay is HH-120 (IgM-like hACE2-Fc fusion protein) (UniProt Q9BYF1). The assay can be described thus: SPR. On the technique in general: SPR reads the build-up and loss of mass on a sensor chip optically.
Substance “S trimer protein of the SARS-CoV-2 Delta variant (from UniProt P0DTC2) (natural protein)” showed a Kd of 1 nM.

In turn, “S trimer protein of the SARS-CoV-2 Alpha variant (from UniProt P0DTC2) (natural protein)” had a Kd of 1 nM.

Substance “S trimer protein of the SARS-CoV-2 Beta variant (from UniProt P0DTC2) (natural protein)” displayed a Kd of 1 nM.

Consider “S trimer protein of the SARS-CoV-2 Omicron variant (from UniProt P0DTC2) (natural protein)”, for which the Kd was determined as 1 nM.

In general, Kd refers to a measure of binding affinity in units of concentration.
